Assay results as given in patent publication US20070105152.
Like-named read-outs stand apart in the source and are kept apart here.

Assays:
AcGG(AcK)APRKQ [1] = system: T1, AcGG(AcK)APRKQ
T1 sequence: GGKAPRKQ

AcGG(AcK)APRK [2] = system: T2, AcGG(AcK)APRK
T2 sequence: GGKAPRK

AcGG(AcK)APR [3] = system: T3, AcGG(AcK)APR
T3 sequence: GGKAPR

AcGG(AcK)AP [4] = system: T4, AcGG(AcK)AP
T4 sequence: GGKAP

AcKSTGG(AcK)AP [5] = system: T5, AcKSTGG(AcK)AP
T5 sequence: KSTGGKAP

AcSTGG(AcK)APR [6] = system: T6, AcSTGG(AcK)APR
T6 sequence: STGGKAPR

AcSTGG(AcK)AP [7] = system: T7, AcSTGG(AcK)AP
T7 sequence: STGGKAP

AcTGG(AcK)APRK [8] = system: T8, AcTGG(AcK)APRK
T8 sequence: TGGKAPRK

AcTGG(AcK)APR [9] = system: T9, AcTGG(AcK)APR
T9 sequence: TGGKAPR

AcTGG(AcK)AP [10] = system: T10, AcTGG(AcK)AP
T10 sequence: TGGKAP

AcGG(AcK)AP [11] = target: T11, AcGG(AcK)AP
T11 chain: GGKAP

AcGG(AcK)APR [12] = target: T12, AcGG(AcK)APR
T12 chain: GGKAPR

AcGG(AcK)APRK [13] = target: T13, AcGG(AcK)APRK
T13 chain: GGKAPRK

AcGG(AcK)APRKQ [14] = target: T14, AcGG(AcK)APRKQ
T14 chain: GGKAPRKQ

AcKSTGG(AcK)AP [15] = target: T15, AcKSTGG(AcK)AP
T15 chain: KSTGGKAP

AcSTGG(AcK)APR [16] = target: T16, AcSTGG(AcK)APR
T16 chain: STGGKAPR

AcSTGG(AcK)AP [17] = target: T17, AcSTGG(AcK)AP
T17 chain: STGGKAP

AcTGG(AcK)APRK [18] = target: T18, AcTGG(AcK)APRK
T18 chain: TGGKAPRK

AcTGG(AcK)APR [19] = target: T19, AcTGG(AcK)APR
T19 chain: TGGKAPR

AcTGG(AcK)AP [20] = target: T20, AcTGG(AcK)AP
T20 chain: TGGKAP

yeast Sir2 was tested, and the Relative kcat/Km (relative to AcTGG(AcK)APRK = 1) (AcGG(AcK)APRKQ [1]) was 2.09, the Relative kcat/Km (relative to AcTGG(AcK)APRK = 1) (AcGG(AcK)APRK [2]) was 2.33 and the Relative kcat/Km (relative to AcTGG(AcK)APRK = 1) (AcGG(AcK)APR [3]) was 2.53. The Relative kcat/Km (relative to AcTGG(AcK)APRK = 1) (AcGG(AcK)AP [4]) was 1.51, the Relative kcat/Km (relative to AcTGG(AcK)APRK = 1) (AcKSTGG(AcK)AP [5]) was 2.12 and the Relative kcat/Km (relative to AcTGG(AcK)APRK = 1) (AcSTGG(AcK)APR [6]) was 1.6. For the same molecule, the Relative kcat/Km (relative to AcTGG(AcK)APRK = 1) (AcSTGG(AcK)AP [7]) was 1.83, the Relative kcat/Km (relative to AcTGG(AcK)APRK = 1) (AcTGG(AcK)APRK [8]) was 1 and the Relative kcat/Km (relative to AcTGG(AcK)APRK = 1) (AcTGG(AcK)APR [9]) was 1.72. For the same molecule, the Relative kcat/Km (relative to AcTGG(AcK)APRK = 1) (AcTGG(AcK)AP [10]) was 1.62.

Trypanosoma brucei Sir2 gave a Relative kcat/Km (relative to AcTGG(AcK)APRK = 1) (AcGG(AcK)APRKQ [1]) of 1.43, a Relative kcat/Km (relative to AcTGG(AcK)APRK = 1) (AcGG(AcK)APRK [2]) of 1.82 and a Relative kcat/Km (relative to AcTGG(AcK)APRK = 1) (AcGG(AcK)APR [3]) of 1.18. For the same molecule, the Relative kcat/Km (relative to AcTGG(AcK)APRK = 1) (AcGG(AcK)AP [4]) was 1.27, the Relative kcat/Km (relative to AcTGG(AcK)APRK = 1) (AcKSTGG(AcK)AP [5]) was 1.81 and the Relative kcat/Km (relative to AcTGG(AcK)APRK = 1) (AcSTGG(AcK)APR [6]) was 1.39. The Relative kcat/Km (relative to AcTGG(AcK)APRK = 1) (AcSTGG(AcK)AP [7]) was 0.59, the Relative kcat/Km (relative to AcTGG(AcK)APRK = 1) (AcTGG(AcK)APRK [8]) was 1 and the Relative kcat/Km (relative to AcTGG(AcK)APRK = 1) (AcTGG(AcK)APR [9]) was 0.89. The Relative kcat/Km (relative to AcTGG(AcK)APRK = 1) (AcTGG(AcK)AP [10]) was 0.74.

B1: SIRT2 (protein)
chain: MAEPDPSHPLETQAGKVQEAQDSDSDSEGGAAGGEADMDFLRNLFSQTLSLGSQKERLLDELTLEGVARYMQSERCRRVICLVGAGISTSAGIPDFRSPSTGLYDNLEKYHLPYPEAIFEISYFKKHPEPFFALAKELYPGQFKPTICHYFMRLLKDKGLLLRCYTQNIDTLERIAGLEQEDLVEAHGTFYTSHCVSASCRHEYPLSWMKEKIFSEVTPKCEDCQSLVKPDIVFFGESLPARFFSCMQSDFLKVDLLLVMGTSLQVQPFASLISKAPLSTPRLLINKEKAGQSDPFLGMIMGLGGGMDFDSKKAYRDVAWLGECDQGCLALAELLGWKKELEDLVRREHASIDAQSGAGVPNPSTSASPKKSPPPAKDEARTTEREKPQ
Molecule B1 has a Relative kcat/Km (relative to AcTGG(AcK)APRK = 1) (AcGG(AcK)AP [11]) of 0.56, a Relative kcat/Km (relative to AcTGG(AcK)APRK = 1) (AcGG(AcK)APR [12]) of 0.6 and a Relative kcat/Km (relative to AcTGG(AcK)APRK = 1) (AcGG(AcK)APRK [13]) of 0.68. For the same molecule, the Relative kcat/Km (relative to AcTGG(AcK)APRK = 1) (AcGG(AcK)APRKQ [14]) was 0.66, the Relative kcat/Km (relative to AcTGG(AcK)APRK = 1) (AcKSTGG(AcK)AP [15]) was 0.59 and the Relative kcat/Km (relative to AcTGG(AcK)APRK = 1) (AcSTGG(AcK)APR [16]) was 0.93. The Relative kcat/Km (relative to AcTGG(AcK)APRK = 1) (AcSTGG(AcK)AP [17]) was 0.78, the Relative kcat/Km (relative to AcTGG(AcK)APRK = 1) (AcTGG(AcK)APRK [18]) was 1 and the Relative kcat/Km (relative to AcTGG(AcK)APRK = 1) (AcTGG(AcK)APR [19]) was 0.72. For the same molecule, the Relative kcat/Km (relative to AcTGG(AcK)APRK = 1) (AcTGG(AcK)AP [20]) was 0.55.
